Molecular target: T1, ERRα1 (Homo sapiens, UniProt P11474)
T1 construct: inserting the PCR-amplified ERRA-1 coding region into pGBT9 through an EcoRI site; expressed in transfected cells; host or cells: yeast Y187 x CG1945 diploids
T1 sequence (P11474 1-423): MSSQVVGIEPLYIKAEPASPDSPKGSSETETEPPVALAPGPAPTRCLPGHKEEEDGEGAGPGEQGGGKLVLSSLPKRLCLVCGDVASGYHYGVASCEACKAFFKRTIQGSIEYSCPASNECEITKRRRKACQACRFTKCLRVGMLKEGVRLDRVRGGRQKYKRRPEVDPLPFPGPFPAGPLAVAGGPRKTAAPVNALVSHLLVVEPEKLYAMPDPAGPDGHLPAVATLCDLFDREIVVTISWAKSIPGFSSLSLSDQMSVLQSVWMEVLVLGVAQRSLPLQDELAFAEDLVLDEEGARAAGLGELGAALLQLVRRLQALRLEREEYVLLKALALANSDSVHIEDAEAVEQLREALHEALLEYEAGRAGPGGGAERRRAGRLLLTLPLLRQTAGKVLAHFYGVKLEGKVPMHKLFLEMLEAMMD
Experiment: Nuclear receptor transactivation, CAT reporter in SK-BR-3 cells
Assay type: cell-based
Description: To examine the possible biological significance of this interaction, the entire PNRC coding region was inserted into a mammalian expression vector, pSG5, and this expression plasmid was used to transiently transfect SK-BR-3 cells along with a reporter plasmid, pUMS 1.3CAT-(SF1site)3, which contains three copies of extended steroid hormone half binding site from the human aromatase gene (5′-CCAAGGTCAGAA-3′ (SEQ ID NO:3)), promoter 1.3 of the human aromatase gene, and the CAT reporter gene, along with a second expression plasmid for either SF1 (pSG5-SF1) or ERRα1 (pSG5-ERRα1) (Yang et al., 1998).
Plasmid for overexpression of PNRC in mammalian cells was made by inserting PCR-amplified fragment with BclI at both ends into the BamHI site in pSG5 vector (Stratagene). To construct mammalian expression plasmids for bovine SF1 and human ERRα1, named pSG5-bSF1 and pSGS-hERRα1, the coding regions for SF1 and ERRα1 were amplified by PCR with an EcoRI site at both ends, and inserted into an EcoRI site of the pSG5 vector. The CAT reporter plasmid, pUMS1.3CAT-(SF1site)3, was prepared by inserting 3 copies of SF1 binding site from human aromatase gene, 5′-CCAAGGTCAGAA-3′ (SEQ ID NO:3), into pUMS-64/+5CAT (Zhou and Chen, 1999) through a HindIII site. […]

PNRC: proline-rich nuclear receptor co-regulatory protein, 327 aa, SEQ ID NO:8, nuclear receptor coactivator
effect on ERRα1-stimulated transcription by promoter 1.3 of the human aromatase gene: enhanced both SF1-stimulated and ERRα1-stimulated transcription

Source: patent US6972178B1, “Drug screening using a proline-rich nuclear receptor co-regulatory protein/nuclear receptor co-expression system” (City of Hope, priority 1999, dated 2005)
